Reference: the nanobody polyreactivity screen of Harvey et al. (2022)

Experiment: yeast display, Sf9 membrane polyspecificity reagent, FACS + sequencing; frameworks hold sequencing errors
Procedure, shortened: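 Polyreactivity labels are assigned by the sorting gate from which each nanobody was recovered. The gates were low and high (top ~1%), set on anti-HA fluorescence for expression and streptavidin fluorescence for reagent binding. Before sorting, galactose-induced (36–48 hours) yeast display cells were stained for 1 hour at 4 °C with 10% biotinylated, detergent-solubilized Sf9 membrane reagent.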

Sequence | polyreactivity (PSR sort gate)
QVQLVESGGGLVQAGGSLRLSSAASGRTFLRYAMGWYRQAPGKVRELVAAISWSGGRTYYADSVKGRFRISRDLAKNTVYLQMNSLKTEVTAVYYCNKGVLYGAHFYYWGQGTQVTGSS | high polyreactivity
QVQLVESGGGLVQAGGSLRLSSAASGRTFPHYAMGWYRQAPGKERELVAAISSSGGSTYYADSVKGRFTISRDNAKNTVYLQMNSLKPEETAVYSCAARYVDDGWKYAYWGQGTQVTVSS | low polyreactivity
QVQLVESGGGLVQAGGSLRLSSAASGRTFRPNAMGGYRQAPGKERELVAGITRGGSTKYADSVKGRFTISRDNSKNTVYLQMNSLKPEDTAVYYCAVERGSYSYDRPFYYCGQGTQVTVSS | high polyreactivity
QVQLVESGGGLVQAGGSLRLSSAASGRTFRWYTMGWYRQAPGKERELVAAISYSGGRTYYADSVKGRFTISRDNAKNTVYLQMNSLKPEDTAVYYCNKRGPSYWRYVETSEYYYWGQGTQVTVSS | high polyreactivity
QVQLVESGGGLVQAGGSLRLSSAASGRTFWVYAMGCYRQAPGKESELVAAISRSGVSTYYADSVMGRFTISRDNAKNTVYLQMNSLKPEDTAVYYCAAPLIYTPLKYHYWGQGTQVTVSS | low polyreactivity
QVQLVESGGGLVQAGGSLRLSSAASGRTFYKYAMGWYRQAPGKERELVAAISWNGGSTYYADSVKGRFTISRDNAKNTVYLQMNSLKPEDTAVYYCNVVNQRSRTGDYWGQGTQVTVSS | high polyreactivity
QVQLVESGGGLVQAGGSLRLSSAASGRTIDGNAMVWYRQAPGKEREWVATITRGGSTYYADSVKGRFTISRDNAKNTVYLQMNSLKPEDTSVYYCAARYYGRSQHHFDYWGQGTQVTVSS | high polyreactivity
QVQLVESGGGLVQAGGSLRLSSAASGRTLAGYAMGWYRQAPGKERELVAAISRSGGRTYYADSVKGRFTISRDNAKNSVYLQMNSLKPEDTAVYYCAADTRIEVYYWGQGTQVTVSS | high polyreactivity
QVQLVESGGGLVQAGGSLRLSSAASGSIFSTNEMGCYRQAPGKERELVAAISVSGGSTYYADSVKGRFTISRDNAKNTVYLQMNSLKPEDTALYYCNADYTRGTMYYWGQGTQVTVSS | low polyreactivity
QVQLVESGGGLVQAGGSLRLSSAASGSIFTYYAMGGYRQAPGKEREFVAGISWSGGRTYYADSVKARFTISRDNAKNTGYLQMNSLKPEDTAVYYCNRQYRYIPSPFDYGGQGTQVTVSS | low polyreactivity
QVQLVESGGGLVQAGGSLRLSSAASGSIFVRNAMGWYRQAPGKERELVAAITSRVGSTYYADSVKGRFTISRDNAKNTVYLQMNSLKPEDTAVYYCAVVFAKRAWSRYDYWGQGTQVTVSS | high polyreactivity
QVQLVESGGGLVQAGGSLRLSSAASGSIFYPYAMGWYRQAPGKARELVSTISWRGGSTYYADSVKGRFTISRDNAKNTDYVQMNRLKPEVTAVYYCAARKRPYSVINGMDYWGQGTQVTVSS | low polyreactivity
QVQLVESGGGLVQAGGSLRLSSAASGSIFYYYSMGWYRQAPGKERELVAAITRSGGSTYYADSVKGLFTISRDNAKNTVYLQMNSQKPEDTAVYYCAKDAHAYRDLDYWGQGTQVTVSS | low polyreactivity
QVQLVESGGGLVQAGGSLRLSSAASGSILYVYAMGWYRQAPGKERELVAVITSGGSTNYADSVKGRFTISRDNAKNTVYLQMNSLKPEDTAVYYCAADPYSVYGGDYWGQGTQVTVSS | low polyreactivity
QVQLVESGGGLVQAGGSLRLSSAASGSTFDYYAMGWYRQAPGKERELVAAISTSGSSTYYADSVKGRFTISGDNAKNTVYLQMNSLKPEDTAVYYCAAPIRYKGGYWGQGTQVTVSS | low polyreactivity
QVQLVESGGGLVQAGGSLRLSSAASGSTFLVYSMGWSRQAPGKERELVAAIRGAGSTNYADSVKGRFTISRDNAKNTVYLQMIRLKPEDTAVYYCAAYLLYTPSMDYWGQGTQVTVSS | low polyreactivity
QVQLVESGGGLVQAGGSLRLSSAASGSTFLYYAMGWYRQAPGKERELVATITDGGSTNYADSVKGRFTISRDNAKNTVYLQMNSLKPEDTAVYYCATDSYHYSYGYSSLPEYDYWGQGTQVTVSS | low polyreactivity
